Measurements from patent US20060223055A1.

How the values were obtained:
[1] = biological target: in vitro translated 35S-labeled Brd4-CTD (human) (UniProt O60885)
[2] = biological target: His-Xpress-SV40NLS-HBrd41047-1362 (human) (UniProt O60885)

“GST-tagged HPV16 E2 R37A (from UniProt P03120 1-365)” was tested, and the percent of Brd4 bound compared to wild type E2 [1] was under 20%.

For “GST-tagged HPV16 E2 W33A (from UniProt P03120 1-365)”, the percent of Brd4 bound compared to wild type E2 [1] was under 20%.

Work on “GST-tagged HPV16 E2 W92A (from UniProt P03120 1-365)” yielded a percent of Brd4 bound compared to wild type E2 [1] of under 20%.

With “GST-tagged HPV16 E2 W134A (from UniProt P03120 1-365)” the percent of Brd4 bound compared to wild type E2 [1] was under 20%.

“HPV16 E2 D122A (pCMV4-16E2 mutant, expressed in C33A cells) (from UniProt P03120 1-365)” was tested, and the percent of wild type E2 binding [2] was over 40%.

“HPV16 E2 E39A (pCMV4-16E2 mutant, expressed in C33A cells) (from UniProt P03120 1-365)” gave a percent of wild type E2 binding [2] of over 40%.

With “HPV16 E2 E90A (pCMV4-16E2 mutant, expressed in C33A cells) (from UniProt P03120 1-365)” the percent of wild type E2 binding [2] was over 40%.

In the case of “HPV16 E2 F121A (pCMV4-16E2 mutant, expressed in C33A cells) (from UniProt P03120 1-365)”, the percent of wild type E2 binding [2] is reported as over 40%.

With “HPV16 E2 K68A (pCMV4-16E2 mutant, expressed in C33A cells) (from UniProt P03120 1-365)” the percent of wild type E2 binding [2] was over 40%.

For “HPV16 E2 L79A (pCMV4-16E2 mutant, expressed in C33A cells) (from UniProt P03120 1-365)”, the percent of wild type E2 binding [2] was over 40%.

For “HPV16 E2 R37A (pCMV4-16E2 mutant, expressed in C33A cells) (from UniProt P03120 1-365)”, the percent of wild type E2 binding [2] was under 10%.

For “HPV16 E2 T93A (pCMV4-16E2 mutant, expressed in C33A cells) (from UniProt P03120 1-365)”, the percent of wild type E2 binding [2] was over 40%.

For “HPV16 E2 W33A (pCMV4-16E2 mutant, expressed in C33A cells) (from UniProt P03120 1-365)”, the percent of wild type E2 binding [2] was under 10%.

In the case of “HPV16 E2 W92A (pCMV4-16E2 mutant, expressed in C33A cells) (from UniProt P03120 1-365)”, the percent of wild type E2 binding [2] is reported as under 10%.

For “HPV16 E2 Y138A (pCMV4-16E2 mutant, expressed in C33A cells) (from UniProt P03120 1-365)”, the percent of wild type E2 binding [2] was over 40%.

“HPV16 E2 Y178A (pCMV4-16E2 mutant, expressed in C33A cells) (from UniProt P03120 1-365)” gave a percent of wild type E2 binding [2] of over 40%.
